The results in this text go back to article PMC10197177, “Development of high affinity broadly reactive aptamers for spike protein of multiple SARS-CoV-2 variants†”.

As a reminder, the Kd is the equilibrium constant for the complex coming apart.

This data set deals with Spike protein, wild-type (Wuhan) (SARS-CoV-2 (wild-type, original Wuhan …, UniProt P0DTC2 14-1213)). Kind of data set: ELONA; Tris buffer; […], pH 7.4, room temperature, spike immobilized; […], pH 7.4 ([…]. Conditions: protein: recombinant; chain copies: 3; label: 3' biotin.

For the molecule ACGAGCTCGAACGCCCGGAGGAGACGGGGGCAGGGCGTGTTCACTGC (ssDNA) [Oligo30], the Kd was 245 ± 8 nM.

B1: M40 (truncated working aptamer) (ssDNA)
DNA: ATCTACGAATTCTCCGCCAAGATAGAGGGTGGGCCGCGGAGAATTCACTGC
Consider B1, for which the dissociation constant (Kd) was 0.155 ± 0.026 nM.

B2: K1 (truncated working aptamer) (ssDNA)
DNA: AATGGATCCACATCTACGAGCTCGAACGCCCGGAGGAGACGGGGGCAGGGCGTGTTCACTGCAGACTTGACGAAGCT
Regarding B2, the Kd was 0.066 ± 0.004 nM.

B3: Oligo14 (ssDNA)
DNA: CCACATCTACGAGCTCGAACGCCCGGAGGAGACGGGGGCAGGGCGTGTTCACTGCAGACTTGA
On to B3, for which the Kd worked out at 5.29 ± 0.95 nM.
